Source: US20150291692A1

What was measured:
[1] = target: KIR3DL2 on fresh Sezary Syndrome cells of patients (human) (UniProt P43630); test: flow cytometry of whole blood of a Sezary Syndrome patient, antibody + GaM-PE against CD4; upper gate (CD4+ cells)
[2] = target: NK cells, including normal KIR3DL2+ NK cells (Homo sapiens) (UniProt P43630); test: flow cytometry of whole blood of a Sezary Syndrome patient, antibody + GaM-PE against CD4; lower gate (CD4-negative NK cells)
Chain of NK cells, including normal KIR3DL2+ NK cells (Homo sapiens) (P43630 22-455 limits assumed): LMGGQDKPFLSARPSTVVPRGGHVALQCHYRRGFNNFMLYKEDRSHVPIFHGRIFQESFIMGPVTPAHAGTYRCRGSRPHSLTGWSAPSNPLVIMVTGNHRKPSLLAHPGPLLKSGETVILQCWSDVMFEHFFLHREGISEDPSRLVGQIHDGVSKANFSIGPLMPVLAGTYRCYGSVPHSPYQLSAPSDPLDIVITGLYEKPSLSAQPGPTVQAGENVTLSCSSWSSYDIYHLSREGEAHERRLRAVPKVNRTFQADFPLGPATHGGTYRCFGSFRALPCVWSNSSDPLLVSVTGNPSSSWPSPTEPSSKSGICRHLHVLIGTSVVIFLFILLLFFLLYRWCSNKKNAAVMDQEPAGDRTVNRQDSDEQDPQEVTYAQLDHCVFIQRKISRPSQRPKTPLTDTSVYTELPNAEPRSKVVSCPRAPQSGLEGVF

Chain of KIR3DL2 on fresh Sezary Syndrome cells of patients (human) (P43630 22-455): as the sequence (P43630 22-455 limits assumed) above

% of cells in gate CD4 GaM PE+ [1]: 0.1% | % of cells in gate NK GaM PE+ [2]: 0.9%
Substance: Isotype Control (antibody)
